These results are taken from article PMC2928130.

In the experiment the target is GST-RPGR^1–15 H98Q (UniProt Q92834). The experiment in a line: pull-down.
Sequence of UniProt Q92834 (Q92834 whole entry H98Q): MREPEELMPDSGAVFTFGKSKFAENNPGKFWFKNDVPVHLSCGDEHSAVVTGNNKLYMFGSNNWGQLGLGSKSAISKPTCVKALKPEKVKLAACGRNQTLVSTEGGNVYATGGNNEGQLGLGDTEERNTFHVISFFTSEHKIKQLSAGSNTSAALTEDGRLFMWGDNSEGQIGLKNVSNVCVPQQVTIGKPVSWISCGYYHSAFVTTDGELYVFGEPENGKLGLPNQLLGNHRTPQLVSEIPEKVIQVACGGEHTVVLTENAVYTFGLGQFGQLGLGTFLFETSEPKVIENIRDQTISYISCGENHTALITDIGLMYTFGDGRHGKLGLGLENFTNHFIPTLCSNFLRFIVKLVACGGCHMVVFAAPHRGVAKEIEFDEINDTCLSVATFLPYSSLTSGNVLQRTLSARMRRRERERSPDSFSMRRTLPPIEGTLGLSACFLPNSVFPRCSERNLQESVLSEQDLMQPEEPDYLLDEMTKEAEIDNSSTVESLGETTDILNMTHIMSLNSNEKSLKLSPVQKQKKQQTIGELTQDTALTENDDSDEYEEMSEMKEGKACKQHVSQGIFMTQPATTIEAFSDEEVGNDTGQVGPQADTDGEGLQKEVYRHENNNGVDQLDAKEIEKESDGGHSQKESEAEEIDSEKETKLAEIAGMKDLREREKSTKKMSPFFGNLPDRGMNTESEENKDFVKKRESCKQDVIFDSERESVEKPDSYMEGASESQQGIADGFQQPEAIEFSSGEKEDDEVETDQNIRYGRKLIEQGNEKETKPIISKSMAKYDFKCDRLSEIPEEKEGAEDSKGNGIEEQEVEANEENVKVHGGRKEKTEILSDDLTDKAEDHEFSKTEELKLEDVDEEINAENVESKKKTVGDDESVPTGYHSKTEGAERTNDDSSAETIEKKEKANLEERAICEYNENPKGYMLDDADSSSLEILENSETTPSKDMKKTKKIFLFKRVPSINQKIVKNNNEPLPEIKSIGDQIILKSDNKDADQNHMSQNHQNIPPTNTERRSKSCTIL

On to “^35S-labeled RAB8A-T22N (GDP-locked form), in vitro translated (from UniProt P61006 1-207) (natural protein)”, for which the fold less association than WT-RPGR was found to be 5 fold.
